This passage reports apoptosis of Wehi-164 cells with TNFα (100 ng/ml) and actinomycin D, MTT assay, 20 h; peptide 50, 100 and 200 μM premixed with TNFα; 70% cell death with TNFα and AcD without the peptide and inhibition of TNFα-induced NFκB (p65) nuclear translocation in A549 cells, Western blot of nuclear extract; peptide 50, 100 and 200 μM (49%, 56% and 65%) results from PMC11153517.

Experiment [1] addresses human tumor necrosis factor (TNF)-α (human) (UniProt P01375).
For experiment [2] the target is unchanged. This is another data set of the same source.

Chain of UniProt P01375 (P01375 whole entry): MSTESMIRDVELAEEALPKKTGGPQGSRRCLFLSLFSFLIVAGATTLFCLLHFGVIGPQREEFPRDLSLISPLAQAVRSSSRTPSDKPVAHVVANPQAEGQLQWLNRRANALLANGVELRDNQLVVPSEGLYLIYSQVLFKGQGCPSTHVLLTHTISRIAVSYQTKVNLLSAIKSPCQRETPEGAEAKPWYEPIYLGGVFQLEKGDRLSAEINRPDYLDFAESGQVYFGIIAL

B1: peptide … (peptide)
peptide: PIYLGGVFQ
In turn, B1 registered an apoptosis of Wehi-164 cells with TNFα (100 ng/ml) and actinomycin D, MTT assay, 20 h; peptide 50, 100 and 200 μM premixed with TNFα; 70% cell death with TNFα and AcD without the peptide in experiment [1] of 26.4 % apoptosis. This molecule yielded an inhibition of TNFα-induced NFκB (p65) nuclear translocation in A549 cells, Western blot of nuclear extract; peptide 50, 100 and 200 μM (49%, 56% and 65%) in experiment [2] of 65 % inhibition.
